53 sequences from the supplement of paper PMC12764529 can be followed below.

Some results are limits rather than exact numbers.

The nature of the series: folding stability dG unfold (combined trypsin and chymotrypsin); higher = more stable. On the procedure: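 Folding stability of de novo designed mini-proteins (<80 aa, no Cys; designed by TrROS, TrMRF, ProteinMPNN and the joint model) was measured by cDNA display proteolysis with trypsin and chymotrypsin. Each protease was used at 11 concentrations in a threefold dilution series plus a no-protease condition. K50 was inferred by Bayesian fitting of sequencing counts, and dG unfold was derived against a sequence-predicted unfolded-state K50 (Tsuboyama et al. method). Sequences shown include variable-length N-terminal GS-type padding (SAGGSAGG...) inside a display construct carrying a PA tag. Rows were kept only if the AF2 dimer inter-PAE was >15, to exclude likely homo-oligomers.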
Turning to “DFLELPGGWKVTEILEKKRLSDGTVEIKAVVKDPNNPVETEIDVKIPIPEVPEVPVEVRLIPGTGELIGILS [r1_411_JUSTAS]”, the “folding stability dG unfold” value is less than -1 kcal/mol.

As for “DMDFKVEDIKVDPDDGKVKIEMPIPNPNMPIAIFAPNGKIKDVKWEHYKEDGRMKIEIPVKSPDEVRAFIFS [r1_138_TrROS]”, the “folding stability dG unfold” value was less than -1 kcal/mol.

For “DNMDMEPEGYDPDNGHYEWEMRTDNQWTEMTMRPKPRIPIPLEELKNIADYLADQNPDNKEKAEKIAEKLAS [r1_330_TrROS]”, the “folding stability dG unfold” value was less than -1 kcal/mol.

For the sequence “KTYYLKAENAPFEEIVEKAREALEADPEEGAEIVIEVPGNPELLEKLDFDEIIPYDIPERPLYIVRAKAPPS [r1_467_TrMRF]”, the “folding stability dG unfold” value was less than -1 kcal/mol.

On to “MRRTLETDEIRRLEIELRPAPGRTAVLDAVVELRDGTPVPLPFPLRLESGRLDPATVERAEREAVEEALARS [r1_124_TrMRF]”, for which the “folding stability dG unfold” value was less than -1 kcal/mol.

On to “MTIEIEVTAEDLKEGKPLTAEELAKKLAEELGLEEVEVKVEVKEDGTVKITIEVKPKPPPEVVLPEELKKKS [r1_168_TrROS_Hall]”, for which the “folding stability dG unfold” value is less than -1 kcal/mol.

As for “MTRTIVAEDMSIEEVKERIEALGAAEPEKGTTVVVEYPGNPEELKKLPIDKIEPREEPERESLVATKTFPAS [r1_467_JUSTAS]”, the “folding stability dG unfold” value is less than -1 kcal/mol.

“MVISPALLREARRAGISDEFLKKAGDVIIPSEVANPEEVKELLAHPGVKKVYPVPPEDPEKLAAAKVVLPGS [r1_248_TrMRF]”: the “folding stability dG unfold” value was less than -1 kcal/mol.

With “NWKILEEEPNPDNGKRVIVIEHEPDPENGQMNMPIELFDPKKGKPRRIPVRMDSPETMIDEIKDQLPPDLIS [r1_156_TrROS]”, the “folding stability dG unfold” value is less than -1 kcal/mol.

For the sequence “SAGAAKEVFHETFPHPAGGPVELARNPGLDWVVLYNAGTGEPTVVPVAADETLVFPAAPGGASTFAVTSAGG [r19_118_TrMRF]”, the “folding stability dG unfold” value is less than -1 kcal/mol.

Take “SAGAPVVEKKRTIPSPLGAPAYLVFVPEEDRIVFTRPGSGEPVELSVPPDSEVEVPAPPSGSLTYRWESAGG [r19_118_JUSTAS]”: the “folding stability dG unfold” value is less than -1 kcal/mol.

Consider “SAGASLAPGESAAFTVTTTTTTTESLPLPDGTTVTTTSTTTTTTAHTVTFPAVPVVTMPPDATDPAVRASAG [r5_770_JUSTAS]”, for which the “folding stability dG unfold” value was less than -1 kcal/mol.

On to “SAGFEKIAEKLGVKPENLEIKDIEDKPVTVPDPKTGKPKERLVPVLYLEFYDPEVGKKVDAEIPLAEVASAG [r5_517_TrMRF]”, for which the “folding stability dG unfold” value is less than -1 kcal/mol.

As for “SAGGATTPVTVPTTSEEEVEAIIEELNKEGLSDLIPKGGKPIPPPDSLRLVPLVITTTPGSGKTTVTLSAGG [r13_174_JUSTAS]”, the “folding stability dG unfold” value is less than -1 kcal/mol.

With “SAGGDNVKLRFYDPNGRLKIDEINPENGNIKVEYEGPGKPRERTVDADPDEAIDEIADNFPFPLEIEKSAGG [r13_141_TrROS]”, the “folding stability dG unfold” value is less than -1 kcal/mol.

As to “SAGGFKPRTINIPAKPGALRNILNDLREKSPNYMVHVTNPDKGKPRHWPLDDLKDMPGPFEFRVMKMPKSAG [r5_437_TrROS]”, the “folding stability dG unfold” value was less than -1 kcal/mol.

Take “SAGGGMDTPLYRTLPPPPVVEKREVWLSGPSKEEAEKKAKEVEEEFKKEGLEVEVKIIPAEEAEKLSSAGGS [r8_210_JUSTAS]”: the “folding stability dG unfold” value is less than -1 kcal/mol.

In the case of “SAGGGMKKYTESTVPLPPGRPDVVERLRAEYPNLEVEREGPADTGTLPTTVKVPAPDGSPLASIELGSAGGS [r8_267_JUSTAS]”, the “folding stability dG unfold” value is less than -1 kcal/mol.

For “SAGGGMMVNLKFESPTSSSTVPLPVVEIRRLPSPEYEEVVVPDGTRYLFNPKTNTLLEEKEVPPLEELSAGG [r13_636_JUSTAS]”, the “folding stability dG unfold” value was less than -1 kcal/mol.

With “SAGGGSMVETRTLEVEEVEDGTVTLSRTLYPGGLVRLTRTRVPPADPSVAEEVETELVYVSPEEAAASAGGS [r16_161_JUSTAS]”, the “folding stability dG unfold” value is less than -1 kcal/mol.

In the case of “SAGGGSSMPRRRALPDGTALETTLGDSVATVRATRYVGDRPLETAERVLPDVPPDVDAEVDFDLPPGSAGGS [r8_155_JUSTAS]”, the “folding stability dG unfold” value is less than -1 kcal/mol.

Take “SAGGIPLKEIKEMIENDPGETWTAQIYRMPPGPNGQMQQQTIEFPIKDPEDALDNLPPGYMVHVEPRSAGGS [r16_116_TrROS]”: the “folding stability dG unfold” value is less than -1 kcal/mol.

Take “SAGGIREIADELGMPPGDKVTIDIERPRDGKPQTQEIEFPPDNVEDILDQMGIPPDQMKITKLKVDKDSAGG [r13_681_TrROS]”: the “folding stability dG unfold” value is less than -1 kcal/mol.

With “SAGGITLEELRGMPPEQLADWLVQEAQEQNKKEGNPNRPVTVEFEYGDQPLKIEITPNGKIEKIELDSAGGS [r16_431_TrROS]”, the “folding stability dG unfold” value was less than -1 kcal/mol.

On to “SAGGKAELAANPGVVRVEVELVDPSGPVALPTREYLYPEGDPAALRAAIEAEIPADLAVARVTFTRLGSAGG [r13_849_JUSTAS]”, for which the “folding stability dG unfold” value was less than -1 kcal/mol.

On to “SAGGKITITLPNGAKIEIEEEEVEVDGKTYLVFKAKITNKDGSKYLITVVIDKKTKEIVSISIEKLPSAGGS [r8_492_TrROS_Hall]”, for which the “folding stability dG unfold” value is greater than 6 kcal/mol.

On to “SAGGKTVEIPIPGPLTIETAKDLASKLAEEGHEDVPIKITMWHWKREPNGKPERHRHTHTYKLKVPKSAGGS [r16_44_TrROS]”, for which the “folding stability dG unfold” value was less than -1 kcal/mol.

Take “SAGGMDEEELRELLAEDDATVLTEDPDGLLVAFTLPDGTARVFPVPSRERLDRLIAEVPDATVTTLPASAGG [r13_600_JUSTAS]”: the “folding stability dG unfold” value is less than -1 kcal/mol.

For the sequence “SAGGMITVLEEEVEERGDELVVTRLVRVSSEEDVEALANDGVPDTAREVRRLPDGTLLAELTETVPPPSAGG [r13_506_JUSTAS]”, the “folding stability dG unfold” value is less than -1 kcal/mol.

With “SAGGMKKRVEIPEELKKAYPDLVVEDQEVPEDSVDVTVRLPTADLKVPQVVLSPDGNPLRSFTLTSSPSAGG [r13_129_JUSTAS]”, the “folding stability dG unfold” value was less than -1 kcal/mol.

Take “SAGGMKTIKRKSKFIKPGKGLSIDRTTELLPGGEVLEPLTFKNPKNGEKIKSFTIRIDPNGNETVENSAGGS [r16_239_JUSTAS]”: the “folding stability dG unfold” value was less than -1 kcal/mol.

As for “SAGGMRVDYKSGKVIPEKTITIERTFSPEVVKTEEDAIELAKQEAEEAGLKDIDLKVELEGDKITVVGSAGG [r13_130_JUSTAS]”, the “folding stability dG unfold” value is less than -1 kcal/mol.

Consider “SAGGMVETTETVVEPGRIRVERRVTLPDGTEVEEVEEVPPAAGGVWEVRSRVRRGEGEEEVARREVAPSAGG [r13_728_JUSTAS]”, for which the “folding stability dG unfold” value was less than -1 kcal/mol.

Take “SAGGMVTIEITDIPEDDPEKAIETAKELVEKIKKEGPPLKVKIKGNTPVFEEVAAELKKLGVETDLESAGGS [r16_450_JUSTAS]”: the “folding stability dG unfold” value was less than -1 kcal/mol.

On to “SAGGNAEEIRDITRDIAEKHGGEVKDVEVEPEPNGRKELTFRMKEDPNTRIKITVDNNEIKITSIQPSAGGS [r8_432_TrROS]”, for which the “folding stability dG unfold” value was less than -1 kcal/mol.

With “SAGGPAEFPEGPGVVVGYTYPPDGKPAKWAIPFPDATPEEARERLAKFAEALPIPGAKVVIDDIKPGPSAGG [r13_29_TrMRF]”, the “folding stability dG unfold” value is less than -1 kcal/mol.

For “SAGGPAEVKIPIMKMEPPKPERVYDPDDGQERWKMEHQMRMEMIPITIRADDNPEEANDIANDFGITSAGGS [r16_467_TrROS]”, the “folding stability dG unfold” value is less than -1 kcal/mol.

“SAGGPDDYPIRIAVYPPDGEIKEEITIPNNWTIKYFPNDDPRIMIQDPGNGETVPVKTPEDIKDLIQSAGGS [r8_232_TrROS]”: the “folding stability dG unfold” value was less than -1 kcal/mol.

For the sequence “SAGGPNKKIKIVMDPDDPNMPMSEIANFMQKEGFEPVEMVPADNLPPEKAREEAEEEGKPVIEIPFNSAGGS [r16_94_TrROS]”, the “folding stability dG unfold” value is less than -1 kcal/mol.

For “SAGGPVYFRIKVEQRRPDPENGEPERREQTVSIPFEYDPDNGMPADEFAEELAKTLPPGIREVEIEPFSAGG [r13_335_TrROS]”, the “folding stability dG unfold” value was less than -1 kcal/mol.

As for “SAGGSAFKVPPGNIKEEEDFKFKFPDGNNMKIKIIRYPGKKRLMMENPGNNEPQTMPVEDLKEMLQSAGGSA [r15_329_TrROS]”, the “folding stability dG unfold” value was less than -1 kcal/mol.

As for “SAGGSAGGEKTASFKVKGNLVAKGVTTFYSPTSDEYTIETEIEKVPPGPKPEITPEEIAKNYLLSAGGSAGG [r6_148_JUSTAS]”, the “folding stability dG unfold” value is less than -1 kcal/mol.

As to “SAGGSAGGGKVPKPVPGPLTILFDVAEDELPPEEIRKLFPDAKVYRFPKGLRVTVPVNGKLVPGSAGGSAGG [r6_738_TrMRF]”, the “folding stability dG unfold” value was less than -1 kcal/mol.

In the case of “SAGGSAGGGMITVPLSEEISMANLPEEERAAGEELGPGSVIRKLLEIKKYPVKPFRFIEKDKILSAGGSAGG [r6_547_JUSTAS]”, the “folding stability dG unfold” value is less than -1 kcal/mol.

As to “SAGGSAGGMELVSEERLPDGSRRFTVRVDPDKSLSLTLPDAGEPVAATVTETFPEEGLVTVELASAGGSAGG [r6_177_JUSTAS]”, the “folding stability dG unfold” value is less than -1 kcal/mol.

“SAGGSAGGPPMEPIPFRVRVDEVEHDPPNGNVVITIKDGDKNPHTINIPPEMAKNMPIEPGDELSAGGSAGG [r6_915_TrROS]”: the “folding stability dG unfold” value was less than -1 kcal/mol.

Consider “SAGGSAGGQKIKIDDVQKNPGNGNYYVRIRPPGKPYEYQFPPGDSADDIADELELNGIDDIEVYSAGGSAGG [r6_83_TrROS]”, for which the “folding stability dG unfold” value is less than -1 kcal/mol.

Regarding “SAGGSAGGRIRDPDGNPFKIKKVEPQPSPNGQPMIKFRYPDNGKEHTIPRDNLPPWLPDNAKPVSAGGSAGG [r6_371_TrROS]”, the “folding stability dG unfold” value was less than -1 kcal/mol.

Consider “SAGGSAGGRVITLKEEELKKLIEEGKVDSVDVEKLPDGTVKAKPIIKEKEELSPKNKEKIFELKSAGGSAGG [r6_279_JUSTAS]”, for which the “folding stability dG unfold” value is less than -1 kcal/mol.

Turning to “SAGGSAGGSAAPIPPDQSATSLTLLPDGTVRKTTTTYPPPEFVTTTTTTIPISPEEGAAAGSAGGSAGGSAG [r3_437_JUSTAS]”, the “folding stability dG unfold” value is less than -1 kcal/mol.

Regarding “SAGGSAGGSAEPDPSSPEPYEVLEVVPRTIVSRVEQPGNPQLLRQTVDVVIIKNPSNGLLDSAGGSAGGSAG [r3_391_JUSTAS]”, the “folding stability dG unfold” value is less than -1 kcal/mol.

Consider “SAGGSAGGSAGAPDEPIQITMRLKYPDGQKREHNTPFPPGKDIEIKNMPPGAKIENIEITSAGGSAGGSAGG [r11_181_TrROS]”, for which the “folding stability dG unfold” value is less than -1 kcal/mol.

Take “SAGGSAGGSAGDLGLEDDTFILKATYPDGTPATIPLKKSEISKISKDNIKSIEFYPKSKLSAGGSAGGSAGG [r11_779_JUSTAS]”: the “folding stability dG unfold” value is less than -1 kcal/mol.
